The results in this text go back to patent US20140341971A1 (LIPOTEK, published 2014).

The assay deals with T1, human DC-SIGN (DC-specific intercellular adhesion molecule 3-grabbing nonintegrin) (human, UniProt Q9NNX6 1-404).
T1 construct: whole, on cells; Target on THP-1 cells transfected with human DC-SIGN and on human moDCs; also called CD209; human DC marker DC-SIGN
T1 sequence (looked up): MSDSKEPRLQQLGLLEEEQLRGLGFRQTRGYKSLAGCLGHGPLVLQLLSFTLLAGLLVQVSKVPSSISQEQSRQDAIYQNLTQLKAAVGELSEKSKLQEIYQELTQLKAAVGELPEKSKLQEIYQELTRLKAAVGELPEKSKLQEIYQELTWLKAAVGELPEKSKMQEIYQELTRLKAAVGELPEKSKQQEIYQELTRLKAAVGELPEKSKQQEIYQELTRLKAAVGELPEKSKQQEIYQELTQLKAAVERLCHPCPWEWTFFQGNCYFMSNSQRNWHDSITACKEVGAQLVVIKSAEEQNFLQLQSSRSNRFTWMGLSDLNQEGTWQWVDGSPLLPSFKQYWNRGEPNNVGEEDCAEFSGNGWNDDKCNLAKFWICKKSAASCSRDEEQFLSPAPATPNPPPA
Briefly: confocal microscopy, fluorescent vaccine on human monocyte-derived DCs. As to the method:
FIG. 3: Z-sections through a human monocyte-derived dendritic cell (moDC) incubated with Lipovaxin-MM. […] Cells were placed on coverslips immediately prior to observation under the confocal microscope.

B1: DMS5000 (other)
VH: STEVQLLESGGGLVQPGGSLRLSCAASGFTFDRRAMGWVRQAPGKGLEWVSSIESDGTRTYYADSVKGRFTISRDNSKNTLYLQMNSLRAEDTAVYYCAKHPGSSYVFDYWGQGTLVTVSS
notes: Human VH domain antibody (dAb), made as a secreted protein in E. coli; also called DC-SIGN specific domain antibody (dAb); dAb
As to B1, the binding result is recorded as “binds”.
